Measurements from the DeepSol protein solubility set.

assay: soluble on expression in E. coli; label from the status in PepcDB or PDB records

Soluble on expression in E. coli, soluble:
MLQHYSVSWKKGLAALCLLAVAGLSGCDQQENAAAKVEYDGLSNSQPLRVDANNHTVTMLVQINGRFLTDDTRHGIVFKDGSNGHKSLFMGYATPKAFYEALKEAGGTPGENMTMDNKETTHVTGSKLDISVNWQGAAKAYSFDEVIVDSNGKKLDMRFGGNLTAAEEKKTGCLVCLDSCPVGIVSNATYTYGAVEKRGEVKFKGNASVLPADNTLATVTFKIAE
MSLNKESLKEYLSSRYQGWSSFLNNVIFPIFGEDDFEDGFETELLESQPERRQLAEATGIRSIKQVGMMYVGVEPLQIFDVTVSDRVMMEHNRVNIQRLIRAVMDQFSCAFMLFHYEDDTRWDWRFTYCRKSGNKEESTDSKRYTFLLGPGQSCRTATDNFIALYDKRNSLEIKDIENAFNVEALSKEFFGKYKAQYEAFVNYMVDPTNGMRQHFIDTGFDHTGMAADKIRDREEKPIRDYVKKLLGRIVFLHFLQKKGWLGVPASKEWGEGDRDFMLNIFKNANERQKENFLDDILEDLFTEGLDRNRSDQGDLYDTKVEGFRNCRIPYLNGGLFERDILDKKPSHFPASYFNGLLTMLSQYNFTIDENDPNDAEVGVDPEMLGRIFENLLEDNKDKGAFYTPKEIVQYMCRESLIAYLQTDMREEDKECIRQFVTTHDASQLGELKEYIDQKLYDVKICDPAIGSGAFPMGLLRELFFCRSAIEPNIVENAANIKRHIIQNNIYGVDIERGAVDIARLRFWLSLIVDEKSPEALPNLDFKIMQGNSLLEQYKGVDLSTEGHHHHHH
FNRGGYNFGKSVRHVVDAIGSVAGIRGILKSIR
MSLKITSVRSFLLSYPLPEPVRLPFHGGERTILKRDAMFIRVEADSGLIGYAPGPGSEQAHKAIQQTIAPFLEDRVLADPDALRVLFLQGPGIDAELAKIYCAVEIALYDLVGKARGIPISEMIGGRVRDTIRLYGSAGMYMSPEGYAAEAAAIAALGFRAYKMRPAGGPEQDLETVRQMRKAVGPDFDLMVDAHTWWRMGDSSYPADTVEQLARDMSAYHIAWLEEPLPPDDHAGYLALKQKDLVLLATGEHEPNEDRYLDLILTQAVDYIQMDVCCQGGYALGRRLFAEIARQGLSFAFHSWGTALEVMAAAHLGICWPQMIAEWLEYPCYSSPGRVGMYPFPLAAEILTEPLEIERGDLLVPRAPGLGVAVDESVIERYPWIPGPWSYFRIDSPAENRAVTSDHSVQWDPEAKEGHHHHHH

Soluble on expression in E. coli, not soluble:
MGSDKIHHHHHHMTIYYNEMVDGGLVREPYAMLSDWIETMPAEIRQMKQAEAEALFRRIGITFAVYGEGGDPDRLIPFDMMPRVFLQGEWRRLERGIKQRARGLNAFLRDVYGRGEIVRAGRIPAPLVYRNAAYEKAVVGFVPPRGVFSHIVGIDIVRTGRDEFHVLEDNCRTPSGVSYMLENREIMMRMFPALFRNNRIEPVDQYPELLRRTLASVAPAKCEGEPTVVILTPGHYNSAYYEHSFLANLMGVELVEGSDLFVDGGFVYMRTTQGPKRVDVIYRRIDDQFLDPLCFRRDSMLGVPGLMDVWRSGGVSIASAPGAGVADDKAVYTFVPEMIRFYLGEEPILNNVQTWTLWKDDDYRYVMANLKDLVVKEVHGSGGYGMLIGPRATKAEIEAFAERIKADPGNYIAQPTLALSTSPTFVDEGVAPRHVDLRPFCLCGDRIELVPGGLTRVALREGSLVVNSSQGGGVKDTWVLSE
MKSAYIFFNPKSGKDEQALAKEVKSYLIEHDFQDDYVRIITPSSVEEAVALAKKASEDHIDLVIPLGGDGTINKICGGVYAGGAYPTIGLVPAGTVNNFSKALNIPQERNLALENLLNGHVKSVDICKVNDDY
MSLRKMKRFYIASEEEIKTGKTTDIYFLRTRKILETKNIRKKVLADVTTTSLPENWKWGVLVGVEEVAKLLEGIPVNVYAMPEGTIFHPYEPVLQIEGDYADFGIYETALLGMLSQASGIATAALRIKIAAKFKPVYSFGIRHMHPAIAPMIDRAAFIGGCDGVSGVLGAEMMGEKAVGTMPHALIITVGDQVKAWKYFDEVIEKEVPRIALVDTFYDEKIEAVMAAEALGKKLSAVRLDTPSSRRGNFRRIIEEVKWELKIRGYDWVKILISGGLDEEKIKEIVDVADAFGVGSAIASAKPIDFALDIVEVEGKPIAKRGKLSGRKQVYRCENGHYHVVPADKKLERCPVCNAKVEPLLKPIIENGEIVVEFPKARDIREYVLEQAKKFNLEIEGHHHHHH
SRLFDEVVKKELDEAALKGVILTDGELKPEEFSMHIAEQLRAGGPFGQAFPEPIFDGEFKVLHQKLVGEKHLKLMLEPLYKGHPTNVMIDGIAFNVDLRRWPDASVKTVRLAYKLDVNEFRGNQSLQLMIDHIEAK
MNLSTKQKQHLKGLAHPLKPVVLLGSNGLTEGVLAEIEQALEHHELIKVKIATEDRETKTLIVEAIVRETGACNVQVIGKTLVLYRPTKERKISLPR
MADYLLEIGLEEIPAHLVTESENQLIERIKNFFSDNLLDYKKIQTFSTPRRLAVLVHDLSNYSQSKDEELRGPSLKVAKDESGNWSRAAEGFARSQGTSPAEFDERDGYVYLNKHIEGVSAEEILKKIGIEVVEKMKFSTYMKWADFKLEYVRPIRWLVSLLDSKIVPFQILDVKADRFTRGHRFLSGGKISISEAGDYEETLNNAYVIVDAKVRKNSIRNQIRKIADTNDWNLHVDPDLLEEVNNIVEYPTAFAGVFDDKYLNLPEIVLTTSMRDNQRFFYVTNKQGKILPHFISVRNGDSNQIENVVKGNEKVLVARLEDAEFFFEEDQKHNIDFFMKKAERLVFHEKIGTMTEHMKRVEKIAALLANQLAFNDQEKKDLKRAANICKFDLTTAMVGEFAELQGTMAGIYAKIFGENQTVCQALSEQYLPTSSEGDLPKSKVGAMLALADKLDTLFSFFAAGIIPSGSNDPYGLRRAALGIVRIIGQQKWNFSVSKLLHSLKTAVDKHEDGFLIDFADTKEISRKVIEFFLDRIRQQSSDIRYDLLDASTGKVNEGIINY
MGSDKIHHHHHHMEPHWDDMKVFLAVAREESLSGAGRQLKLDPATVGRRIARLESAYDTPLFAKSPQGYTLTAAGERLLSHGEQAEAAMRSASEALAGTTEGLTGQIRIGAPDGSANYLLPQVCAQISDENPELDIQILALPRIINLSRREADMAVTVSAPTAGHLLVQKITDYKLHMVASRRYLRGHPPIETLADLRGHRMIGYIPDMIFDRELDYLNDIGIERVALASNSVSVQLRQAGHGSGICVAHDFTLPFHGNLRRILTDQVSLTRSFYLVRHQGDQRSERLNRFAEALTRGIRDEVARLEADAMS
MKSLTVIILYSEREQILEESIQSIWKLNLLEIIILVPNDRSNLYEIAKKHKCHIVLMGKYSTYYDGYEASVKAAKGDVLLFVDSNFLLSTNEMQRFIEPIVTNQADVVLNKIDKLIEIGKCPNMDIVWRKMLNEILSRPDLKSNSILSLPYALTKEVVENIGFNYMEDIVLSHMKIVNQGWRINDQYAINTLSKDETIEEGGYLIKKELSKNEKEKVERYLRGIAKWIEKKGRRVGFTDAGKRRDIVQKLGECKRYPSYHQGWGMHSSIYDGKQLSVIIPVQNEEETIEQVILEARKIEPLEIIVVVNGSTDQTANIAKRLGVTIIEYNERLGHNVGRAIGALEATGDILLFIDGDFSVSGSNLHHFTKAVSAGVDIALNDLNPMLHPPFYVVDVVKYMLNLAYNRPELSNGSLVAIPHAMSRSCLDAIGWESLLCPSLAQVKAILQGYRVECVHYVDVVKPNRIRLMENVSHNGHPPAVLRIIGDHVEALSYLIEQLEMDGKGDLEHHHHHH
MGSDKIHHHHHHMTTDILNISEEQLVDYSKAHNEPSWMTELRKKALKLTETLEMPKPDKTKLRKWDFDSFKQHDVKGDVYQSLSQLPESVREIIDVDHSKNLVIQHNNTIAYTQVDDNASKDGVIVEGLADALMNHSDLVQKYFMKDAVTVDEHRITALHTALVNGGVFVYVPKNVVVEHPVQYVVLHDDENASFYNHVIIVTEESAEVTYVENYLSNASGEGNQLNIISEVIAGANSNITYGSVDYMDKGFTGHIIRRGITEADASINWALGLMNEGSQIIDNTTNLFGDRSTSSLKSVVIGTGEQKINLTSKIVQYGKETDGYILKHGVMKEHASSVFNGIGYIKHGGTKSIANQESRVLMLSEHARGDANPILLIDEDDVQAGHAASVGRVDPDQLYYLMSRGISQREAERLVIHGFLDPVVRELPIEDVKRQLREVIERKVSK
MGLQKKLNYKKTESERSFYRGSNLKQVMGEDIVSKFDYIGPIRWIFLNYCTGYFIFVEELTNNSEIRSDRLEFIDTMNKIFSEAEQYFNSAPKERPKNPKSLAEYKYLGYYRLSFSNTNPDNSAIIRLNDVEVEKSELPPLLNLDTDEILDYAV
